In patent US20190185516A1 (YISSUM RESEARCH DEVELOPMENT COMPANY OF THE HEBREW …, published 2019):
Numbered stars: 1 amine (or outer) side, 2 acyl side, 3 side chain; on linkers, the order of the positions; unused ones are H or OH. Bridge positions count the residues as written; N and C are the ends. Square brackets hold non-standard residues; d marks the D form. Ends that are not written are not given here. CO = O=C([*:1])[*:2]; Nlys = NCCCCNCC(=O)O

Target: MyD88, endogenous, in human cell lines (HeLa, U937, THP-1) (human, UniProt Q99836 1-296)
Test: cell-based or functional assay

Chain of MyD88, endogenous, in human cell lines (HeLa, U937, THP-1) (Q99836 whole entry): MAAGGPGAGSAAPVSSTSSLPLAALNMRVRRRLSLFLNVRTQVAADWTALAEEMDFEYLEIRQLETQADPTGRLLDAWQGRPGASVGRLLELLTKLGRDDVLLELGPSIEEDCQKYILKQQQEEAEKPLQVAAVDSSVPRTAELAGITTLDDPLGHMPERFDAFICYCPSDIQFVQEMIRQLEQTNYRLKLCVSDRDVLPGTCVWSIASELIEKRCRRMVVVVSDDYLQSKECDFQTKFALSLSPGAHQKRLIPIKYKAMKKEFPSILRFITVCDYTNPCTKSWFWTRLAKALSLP

Percent p65 nuclear translocation in HeLa cells, IL-1β [%] | Binder
91 | PTDLVRG [scrambled version of the linear MyD88 inhibitor peptide (PTDLVRG)]
27 | W[Nlys]RDVL[Nlys]GT (bridge 2-7 via CO; also: backbone cyclization: two amine-terminated 4-methylene arms on Gly2 and Gly7 joined by a urea bond) [backbone cyclic peptide 4×4MyDI (Formula IV, m=4, n=4, Z=Trp)]
20 | RDVLPGT [MyD88 inhibitor linear peptide RDVLPGT]
